{"source": "patent US20100004429A1", "molecular_target": "human thrombopoietin receptor (human c-Mpl) (human) (UniProt P40238)", "test": "cell-based or functional assay", "data": [{"substance": "PEG-rHuMGDF (pegylated recombinant human megakaryocyte proliferation and development factor) (from UniProt P40225 22-184) (ligand)", "values": [{"measurement": "UT7/TPO (Max)", "value": 100, "unit": "%"}]}]}
